Assay [1] has as its target Bovine cardiac actin, filamentous (F-actin) (bovine) (UniProt Q3ZC07).
For assay [2] the target is unchanged. This is another data set of the same source.
For assay [3] the target is unchanged. The source holds these as a separate data set.
The target is the same in assay [4]. In words: temperature dependence of light scattering; thermally induced dissociation of Tpm complexes with F-actin stabilized by phalloidin; light scattering at 90°, 350 nm, heating 1 °C/min; Tdiss is the temperature at which a 50% decrease in light scattering occurs; no troponin.
Assay [5] shares this target. In words: co-sedimentation; Tpm co-sedimented with F-actin at room temperature; apparent affinity; K50% is the Tpm concentration at which half of the actin becomes saturated; three measurements averaged; as described in refs 27, 28.

Regarding “Atrial myosin from the left atrium of the pig (from UniProt F1RRT2 1-197; F1SSF9 1-175) (complex)”, in assay [1], the V0, sliding velocity at low Ca2+ concentration, in vitro motility assay; regulated thin filament of F-actin, D219V Tpm and troponin worked out at 1.42 µm/s; the V0, sliding velocity at low Ca2+ concentration, in vitro motility assay; regulated thin filament of F-actin, WT Tpm and troponin worked out at 0.39 µm/s; the Vmax, sliding velocity at saturated Ca2+ concentration, in vitro motility assay; regulated thin filament of F-actin, D219V Tpm and troponin was determined as 8.45 µm/s; the Vmax, sliding velocity at saturated Ca2+ concentration, in vitro motility assay; regulated thin filament of F-actin, WT Tpm and troponin is 7.17 µm/s. Moreover, in assay [2], the C50, myosin concentration at which the sliding velocity is half-maximal, in vitro motility assay; filament: F-actin alone turned out to be 18 µg/mL; the C50, myosin concentration at which the sliding velocity is half-maximal, in vitro motility assay; filament: F-actin with D219V Tpm came to 43 µg/mL; the C50, myosin concentration at which the sliding velocity is half-maximal, in vitro motility assay; filament: F-actin with WT Tpm was 55.4 µg/mL; the Vmax, sliding velocity at saturated myosin concentration, in vitro motility assay; filament: F-actin alone stood at 3.26 µm/s. Besides, in assay [2], the Vmax, sliding velocity at saturated myosin concentration, in vitro motility assay; filament: F-actin with D219V Tpm stood at 3.32 µm/s and the Vmax, sliding velocity at saturated myosin concentration, in vitro motility assay; filament: F-actin with WT Tpm stood at 1.25 µm/s. In assay [3], this substance came in with a C50 of LA myosin for the sliding velocity of thin filaments at saturated Ca2+ concentration, in vitro motility assay; thin filament with D219V Tpm of 47.2 µg/mL and a C50 of LA myosin for the sliding velocity of thin filaments at saturated Ca2+ concentration, in vitro motility assay; thin filament with WT Tpm of 45.3 µg/mL.
Regarding “Human Tpm1.1 D219V mutant (natural protein)”, the Tdiss in assay [4] turned out to be 45.3 °C. In addition, the K50% in assay [5] amounted to 2.64 µM.
The like results for “Human Tpm1.1 WT (cardiac tropomyosin 1.1) (natural protein)” were, in that order, 43.3 °C and 2.88 µM.
In the case of “Ventricular myosin from the left ventricle of the pig (from UniProt P79293 1-1935) (complex)”, in assay [1], the V0, sliding velocity at low Ca2+ concentration, in vitro motility assay; regulated thin filament of F-actin, D219V Tpm and troponin is 0.81 µm/s; the V0, sliding velocity at low Ca2+ concentration, in vitro motility assay; regulated thin filament of F-actin, WT Tpm and troponin came to 0.24 µm/s; the Vmax, sliding velocity at saturated Ca2+ concentration, in vitro motility assay; regulated thin filament of F-actin, D219V Tpm and troponin came out at 4.22 µm/s; the Vmax, sliding velocity at saturated Ca2+ concentration, in vitro motility assay; regulated thin filament of F-actin, WT Tpm and troponin worked out at 3.73 µm/s. In assay [2], the C50, myosin concentration at which the sliding velocity is half-maximal, in vitro motility assay; filament: F-actin alone worked out at 20.1 µg/mL; the C50, myosin concentration at which the sliding velocity is half-maximal, in vitro motility assay; filament: F-actin with D219V Tpm was 26 µg/mL; the C50, myosin concentration at which the sliding velocity is half-maximal, in vitro motility assay; filament: F-actin with WT Tpm worked out at 54.9 µg/mL; the Vmax, sliding velocity at saturated myosin concentration, in vitro motility assay; filament: F-actin alone was 2.88 µm/s. Further, in assay [2], the Vmax, sliding velocity at saturated myosin concentration, in vitro motility assay; filament: F-actin with D219V Tpm was 2.93 µm/s and the Vmax, sliding velocity at saturated myosin concentration, in vitro motility assay; filament: F-actin with WT Tpm was 1.5 µm/s. In assay [3], this substance had a C50 of LV myosin for the sliding velocity of thin filaments at saturated Ca2+ concentration, in vitro motility assay; thin filament with D219V Tpm of 25.9 µg/mL and a C50 of LV myosin for the sliding velocity of thin filaments at saturated Ca2+ concentration, in vitro motility assay; thin filament with WT Tpm of 30.1 µg/mL.

The record behind these values is article PMC9820293.
